The results in this text go back to a protein production outcome set (Wang et al. 2014).

The series can be described thus: label from the status in PepcDB records.

With “MIIHIRRTDEKQRWLFFSTLLNATLAVAKLGWGWMMGSTLVVADGIHSISDVFGALLIFLALFFAAHKSERFPYGLHKLEDMAAVLGGLGILYAGYEIIHSVFFEAGIKTPEAIWTTIGFILAIVFIQYTFYFFELKAAQRLGSPGVKADAVNWLGDIGAGMIVVIGLVAHHYKVPYAQEVSVIIIVLMILKGAYDVLKEGLLSLLDAADIEMNDTIRNIVMAEPDITNIKRLNVRKSGSVYFADIELSIAEVATAKAHKSIDEVVNRLHEEINTLEAVTIHYEPDHPPYRTVVRLLDKDKKHLSIHFGQTAWLEITHIEADNKQISKEFVKNSAVIAPKGKAFRLVAYLLSIHTDTIVMGNAELDENILTLFEALNIEVKKEKNDET”, the protein production entry was “failed”.

For “MIIIMAGGKSSRMGREKPVLKIAGKEMLLWVYEQAEAVGEVLVALSRHTPRTRELCLREGIEFVDTPGRGYVKDVQWLLREFGPFISLSSDIPFVKSSDIYSLLKEFDGKVSLTGVLPLEVVPKDLTPYSYMGYAIVGINGVAKEGEKFFVFSNPLLALNVNTPRELELAKRVAEIIRVRGIRLEHHHHHH”, the protein production entry was “not failed”.

As to “MIILPKTLYEEMLNHCLNSLPIEACGLLGGVIEDEKRIVKKVYLLTNVDQSPEHFSMDPLEQFAAVKDMRKNGWVLLGNFHSHPTTPARPSEEDKRLAFDKSLSYLILSLMDEKNPVLKSFRIYESYVEEEEIQIILEHHHHHH”, the protein production entry is recorded as “failed”.

Take “MIIRDQLILSIDNDLRDLIKARDIGVIYVYREETGEPEPGPSIEDIDLPEPLLEALKKRGIRRLYRFQYDAYKSILNGENVVITAGTGTGKTEAFLLPILSKIYEKRTPNPQAMLVYPTKALARDQLQRINDYLGYGVFSAAVYDGDTPRRIRQKISANPPDIVVTNPDMIHVGLVLSPTIRRFVKASQFMVIDELHVYEGVFGSNVKCVFERINKYRRNNPPQYIGSSATIGNPREHAETLFGVPVKVIEGPLRRRGIAYHVLVSAGKLSRWTVTAALASVLARRGLRFIVFVDSQQMAELIARIAWRSYGVDIMVHRAGLPADERKMIESKLRAGEISGVAATPTLELGIDIGFLDAVIMAAPPPSFAKYLQRAGRAGRRGRKGYVFTVLADDPIDAYYERNPKRYFEQEIPPLYMDPENEEVLRIHLLALLLEQGRIRRDELKRAWLRVAERLRYERLVAWVGPYIYPNYRLARKIFMEYMSIRGSGPQVVIYDVDEKNIVGYRELPQAVLDLHPDAVYLLNRRVYKSIEIDVDKKIARVKRLPDDTPYYTRPLYTVDLVDYSILASRTSSRGIPLAYAWVKLSINVEGYIVRNYWETEKAGIKYWFDHPITYTYNTKALLLKYPENPEWDYMSNAEAFHAIEHALISAARPVCGAALGEMGGISYPSGDIVIYDGAPGGSGLAKLLFERFEKAEEIAYEIVSKCDCEDGCPRCIYSPYCGNNNQVLSRRKATYVLGNILKRGAVKVMEPIKNRYGKPIV”: the protein production result is “failed”.

Take “MIIRNGCLEDLQQVISIEQINFSEAEAASKKAMQERLTIMTDTFLVAEINGRLAGYIEGPVIKGRYLTDDLFHKVSEFPVRVGGFIGITSLSIHPDFKGQGIGTALLAAMKDLVVSQERDGISLTCHDDLISFYEMNGFKDEGESDSKHGGSLWYNMIWNNPTRSIC”: the protein production result was “failed”.

As for “MIIRYATPDDIEDMVSIFIDAYNFPGPRESVKSSFEISLEVQPDGCLLAFLKDEPVGMGCIFFYNKQAWIGLMGVKKAYQRRGIGTEVFRRLLEIGRRKVDTIRLDASSQGYGLYKKFKFVDEYRTVRYELMERPIKRVEGVVEVNKIPNWVKEIDKKAFGDDRIRVLEAYMRRGARLLCAENEGFGLVYRGKIGPLVADSPRVAEKILLKAFQLGAREIIIPEVNKDALELIKIFKPSQVTSCMRMRLGSKIEEKVDIYYGILAYAKG”, the protein production entry is “not failed”.

Take “MIITIARQCGCGGHEVARILANKLGMELFDKKKLLEEANQLGQAEEHSNFFNEVPINSLLYGIAMGFGNTKPMDKSLKLVKAITENKDAIIIGRCANIIYKDSKDVTSVYLFADKEFRIKYLMERDGISEKEAEKYIKEVDEKRTSFHKYCTDTVWGDAKEYQLCLDTGKIGFEKTAELIMNYINAKKES”: the protein production entry is given as “failed”.

Consider “MIITLFVMVSGNKVKYEGSGKSGLWMSNLEKSDKTSIGPNYFLNLYWQGSKKEEKWTVVERITLYVDGEKYQDDNVDEYDLSEYTGDEMPGGGRMEDHISTFDYMPEDEVIGHDVLVKVEWRTGQKKQTEAIKLHKKPWYKKLEHHHHHH”, for which the protein production result is “failed”.

In the case of “MIITQGPQFQGKASKRLHVMAKPIGAVCNIDCSYCYYLSKEDLLEYKKGCSPQMDDETLETYIRQYIEGQNTPEIIFSWQGGEPTLLGLDYFKKIVEFQKKYQPEGILISNDLQTNGTLLTDKWCEFLAENNFLVGLSIDGPEMLHNAYRTNKAGRGTFKQVMNAVELLHKHNVKFATLTCVNNLTSRNPLEVYRFLRDV”, the protein production result is on record as “failed”.

As for “MIKAYFGAETFTLNKDFAYILVIGTTDVSLIPGLTIAGATPELTHFTPAADAEYVILGKCKSINTIPVSPTGIPTPALLTRASLSFTKSLKIVVNAGSRITPKIPYIDLQGEPGKDIRKQALSIEKVNIIIENGIKLGEELSNEYELIMIGESIPAGTTTAMATLLALGYDAMDKVSSASPDNPKELKRKVVEEALRNLPTDPLQRLAKVSDPVLLGVAGISLGFRGKILLAGGTQMTAAAAIVNEFDKSKLKDIIIGTTKWIVEDKSADMLSLAKQVGVKVLASMLDLSISIHEGIRTYEKGYVKEGVGAGGSTIMAFIRGVSNSTLVRKIDELYSELVGSNNLNT”, the protein production entry is listed as “failed”.

On to “MIKDRFLQLIQLLISLFLIMGALGIGITIQKFTGVSVPGSVIGMLVLFFSMTLGLVKVDWVKPGATLFIRYMILLFVPISVGLMQHFDMLLANALPIIASAVGGSLIVLVSLAWLLDYLLKEKH”, for which the protein production entry was “failed”.

With “MIKERPKFNWLHLLIFIVVVEAIGSLSAWLAGDIKAVYNGLNLPVLSPPDGLFGIVWPILYALIAIAGYLVFQQATTHRDRLMDATLFGIQLLLNFIWSIIFFSQSAYWWGLVIIIVLDLVVLLCILRFYRSSRLAAILMVPYLVWICFATYLTLGVALLN”, the protein production result was “failed”.

As to “MIKHESSQPLRVAVAQCRIDWEDKHANLRRMERLAEETAGMADVLFFPEMMTTGFSMNVQALAEPFEEGETIMSLKRVTARHGLALSATMAVRENGKFYNRAYFVTPEGEVFHQDKRHLFRVGGEHEVMTPAQERRIFNY”, the protein production entry is reported as “failed”.

Take “MIKKARKFIPFFLIGSLLAEDNGWYMSVGYQIGGTQQFINNKQLLENQNIINSVTQSAINIAGPTTGLITLSSQTVIDALGYGVSNTVGNQLEGISNILNQIGKRKDFYSSRQISSISQQIIGLKGSSDPLKAHSSQITAKLLSNTQSAFDQGIALSTNIISSINSLNPSNNTQEVKKQLQNTAQSMTELLQQIEHSITKTTSTTYAQSLLSNLTDAVNASSNNTAYVSALVNALNTLGVGVFPTTTTTHVVLNPPGQVVFYPTNSILGSTSSNSNNQQQYNNTLLMNTLQGTLSANTQNNPNGCANQVQCLEQFIQNLAPLAATPTSNNQANQQVQAIAQKLQSVAINTLDNNAINNTTYNLNNLHNALNFQAYESTIEQYNNALKQISWISFTEPKNLLKNTSNNYQIGTVTNAQGQNISAYDCMTATGSLSSNASSGISCSATSSTSSTNSFDNSLVATSKVQTINGKEQIGVNSFNLVSQVWSVYNSLKTSEENLQKNANILCANGTQSGTSSCNSSSGGLSISGNAQLQNILSPTSGTTTNTQAKSNAPKLKAMVVVNNEEEAKTANLAQSSGTTTQSPNSTVMGALNTVLQNVSNFQQSIQNAFQNQESNIQAWANAIYNTNGSQSQEMTPNNNQDLRIQLRANFYQLINTINQQVPTDMNALINQSQQTQQTSGSASNNNACASGMSGSNGNWCYQQWSDSKAYYSGLQSALGYQTQATTQSGSNGGNSITYNVQQITLTSNGLLNQIITNLKSVNGGNGASGTGSGNGTSQINTAYQMLTDASDGKLGTYSSSSGSNNGYTPCNSTNGSNKTSGNNCYEPNKQQNATTATATTDSNLQKVYNDAQKIANIIASSGNNKGVENGLKQFFEALKNNSSSLSNLCGNGSSGSSGTTCSGWLINLLGAIPTNGVSDTNNLINLLTEFIKTAGFIQNNDSSVSTSLTSAFQAITSAISQGFQALQNDISPNAILTLLQEITSNTTTIQSFSQTLRQLLGDKTFFMAQQKLIDAMINARNQVQNAQNQANNYGSQPVLSQYAAAKSTQHGMSNGLGVGLGYKYFFGKARKLGLRHYFFFDYGFSEIGLANQSVKANIFAYGVGTDFLWNLFRRTYNTKALNFGLFAGVQLGGATWLSSLRQQIIDNWGSANDIHSTNFQVALNFGVRTNFAEFKRFAKKFHNQGVISQKSVEFGIKVPLINQAYLNSAGADVSYRRLYTFYINYIMGF”: the protein production result was “failed”.

Turning to “MIKKIHRWLPLLVLIGLLVLFFSLHLDKYLSFNALRENHALLIAWTQTHYFIAPLIFIVFYTTAVAISIPGAVLLTLTGGFLFGVFWGVLFVVISATLGATILFFAVRTALGDWFAQKASGWIERMRQGFQHNAFSYLVTLRLIPLFPFWAVNIVPALLNIRAKTFITATFIGIIPGTTVYVMVGNGLSQIFAANQTPNLGIIFELQILGPLLALAVLSLMPVLYQFSTRKHQNHHSFSDISRVINCDLAIIGGGAGGLSLASGCSQLGLKVVLVESGKMGGDCLNYGCIPSKSLLAAAKTFYYAKHATHFGVHTEAIKINFQQVMQHVHQIIDNISEHDSVQRFESLGVQVIKQVGKFLNPDTLQAGDSIIKAKRFVVATGSSPFIPPIPGLDAVSYFTNETIFDLKEQPEHLIVIGGGPIGCELAQAFAMLGSKVTLLEGLNLLPKDDPDCVAVLRTQMKSMSIVIHEQIEITQINSHPDTGISVCFEFQNTQFTITASHLLIATGRRANVKPLDLEKAGVKLTSKGVEVNKYLQTSNKKIYALGDVTGLYQFTHMASYQASIVLRNIVFKLPSKVDYRAIPWVTYTDPELAHVGIGVSDALKHPDAQIIEWPFVDNDRAQTERSLNGKIKIITDKKARILGVTIVGPHAGELILPWVMAIREKKNLRSFTDVIVPYPTLSEISKRVAGSFYAPKLFSNKTRMLVRWLQKIG”, the protein production entry is “failed”.

Consider “MIKLQLKLQGSVSVQVNAGPLAYARAFLDDTNTKRYPDNKVKLLKEVFRQFVEACGQALAVNERLIKEDQLEY”, for which the protein production entry is “failed”.

With “MIKLSSITAHILDIWHRRNSRSYIAHLRSLGIRIGDGCIFRDPLTTRIDVSRPALVSIGSNVDMNTYFQILTHDWASFVFRNKYHDFVNSSGRVEIGSNIYIGTNVIVLRGVTIGDNCVIGAGSVVTHDIPANSVAVGAPCRVVCSLDEYYQKRKVKGLQEAVEHVKAFQKNFGRDPLPHELYEEFIYFVDASNVEEYERQGVPVRSQLSIAYGDWLSTHKAKFSSYDDFIQYVNQKMNETAES”, the protein production result is “failed”.

As for “MIKQVNPHFKEFLFDWNQKFQFLVGGYGSSKSYHVALKIVLKLLREKRTALVIREVYDTHRDSTFSLFDELVSDLKLDHIVRCVSSPMQIRFSNGSRIIFKGMDKPAKLKSINNISLIWIEECSEVKYEGFKELLGRLRHPTLPLHMILSTNPVGEDNWTFKHFFKDDREKRFVLDDKELYEKRIIVSNDTYYHHSTADDNLFLPESYVQQLEELKEYDPDLYRIARKGHFGVNGIRVLPQFEERPHEEVMTAISNINRPLKRVGMDFGFVESYNAVVRVAVDHEKKYLYIYWEYYKNGLTDDKTAEELKEFAETKELIKADSAEPKTIRYFQQHGFNMVGARKYQGSRLQYTKKIKRFRKIICSDRCENTIYELKPLAYATDKLGNIIEDEFTIDPHTLSAIWYALDDYEVTDLKEESKGRPQRSRPGRR”, the protein production result is listed as “not failed”.

For “MIKSSLPPILTSQIGPDSIELRLLVAADLEYFNGHFPEQAVLPGVTQLDWAVRLGCEHFGYSAAVANLEVLKFQQLILPGQEVTLVISHNATKEKLTFAYSDGDHRYASGRISFASKQDDGAAQ”, the protein production entry is reported as “failed”.
